Read-outs that look alike come from different tables or passages of the source. Positions of bridges follow the written chain, without caps; N, C: chain ends. No end group written: not given here.
Experiments:
[1] = molecular target: T1, recombinant human IGFBP-3 (human, UniProt P17936 28-291); experiment: competitive phage ELISA
T1 construct: biotinylated and held on a streptavidin chip in the ALS experiment

human IGFBP-1 [2] = molecular target: T2, human IGFBP-1 (human, UniProt P08833 26-259); experiment: competitive phage ELISA
T2 construct: biotinylated in the ELISA formats; amine-coupled to the chip in peptide kinetics
T2 sequence (looked up): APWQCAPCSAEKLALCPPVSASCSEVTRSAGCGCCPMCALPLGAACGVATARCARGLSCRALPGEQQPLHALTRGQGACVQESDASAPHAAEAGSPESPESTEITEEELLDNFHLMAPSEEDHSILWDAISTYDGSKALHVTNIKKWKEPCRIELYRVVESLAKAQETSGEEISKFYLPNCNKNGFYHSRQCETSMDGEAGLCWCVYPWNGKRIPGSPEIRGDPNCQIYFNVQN

[3] = molecular target: T1, recombinant human IGFBP-3; experiment: competitive phage ELISA; remark: listed apart in the source
human IGFBP-1 [4] = molecular target: T2, human IGFBP-1; experiment: competitive phage ELISA; remark: listed apart in the source
[5] = molecular target: T1, recombinant human IGFBP-3; experiment: competitive phage ELISA; the reference itself
human IGFBP-1 [6] = molecular target: T2, human IGFBP-1; experiment: competitive phage ELISA; the reference itself
[7] = molecular target: T1, recombinant human IGFBP-3; experiment: phage ELISA on IGFBP-3 plate, competitor IGF-1
Method: The plates were then washed ten times, as above, and a solution of rabbit anti-phage antibody mixed with a goat-anti-rabbit conjugate of horseradish peroxidase was added. After an incubation of 1 hour at room temperature, the plates were developed with a chromogenic substrate, o-phenylenediamine (Sigma). The reaction was stopped with addition of ½ volume of 2.5 M H₂SO₄. Optical density at 490 nm was measured on a spectrophotometric plate reader.
In each case, the phagemid clone was grown from a single colony overnight at 37° C. in a culture volume of 5 ml. The phage particles were precipitated and resuspended in 0.5 ml of PBS buffer.

human IGFBP-1 [8] = molecular target: T2, human IGFBP-1; experiment: stated with the explant experiment
human IGFBP-1 [9] = molecular target: T2, human IGFBP-1; experiment: BIAcore inhibition of IGFBP-1 binding to IGF-1
[10] = molecular target: IGFBP-3/E3A/F49A IGF-1 binary complex (human) (UniProt P17936); experiment: BIAcore, ALS dissociation from the IGFBP-3/IGF-1 complex
[11] = molecular target: IGFBP-3/F49A IGF-1 binary complex (human) (UniProt P17936); experiment: as above
Chain of IGFBP-3/F49A IGF-1 binary complex (human) (P17936 28-291, chain 1 of 2): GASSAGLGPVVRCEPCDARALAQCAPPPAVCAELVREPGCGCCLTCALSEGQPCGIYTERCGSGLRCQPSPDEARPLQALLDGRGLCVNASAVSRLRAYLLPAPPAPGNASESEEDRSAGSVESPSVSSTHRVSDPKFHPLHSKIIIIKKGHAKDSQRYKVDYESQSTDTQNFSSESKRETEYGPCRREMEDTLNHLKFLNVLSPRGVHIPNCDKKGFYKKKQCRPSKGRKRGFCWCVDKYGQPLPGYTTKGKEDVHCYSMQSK
Chain of IGFBP-3/F49A IGF-1 binary complex (human) (chain, as listed by the source F49A F49A, chain 2 of 2): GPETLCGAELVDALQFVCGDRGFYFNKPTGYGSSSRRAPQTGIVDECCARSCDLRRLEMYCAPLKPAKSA

T1 sequence (P17936 28-291 limits assumed): as the sequence (P17936 28-291, chain 1 of 2) above
Chain of IGFBP-3/E3A/F49A IGF-1 binary complex (human) (P17936 28-291, chain 1 of 2): as above
Chain of IGFBP-3/E3A/F49A IGF-1 binary complex (human) (chain, as listed by the source F49A F49A, chain 2 of 2): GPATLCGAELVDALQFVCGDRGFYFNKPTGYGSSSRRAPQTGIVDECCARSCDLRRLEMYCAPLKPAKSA

Molecule | IC50 [1] [nM] | IC50 (human IGFBP-1 [2]) [nM] | relative IC50 (mut/G1S-A70V) [1] | relative IC50 (mut/G1S-A70V) (human IGFBP-1 [2]) | also measured
IGF-1 G1S-A70V on phage (from UniProt P69168 267-424) (ligand) | 0.75 | 8.2 | – | – | IC50 [3]: 0.5 nM; IC50 (human IGFBP-1 [4]): 8.5 nM; relative IC50 (mut/G1S-A70V) [5]: 1; relative IC50 (mut/G1S-A70V) (human IGFBP-1 [6]): 1
Y31A IGF-1 (G1S-A70V background) on phage (from UniProt P69168 267-424) (ligand) | 0.73 | 6.8 | 1 | 0.8 | –
S33A IGF-1 (G1S-A70V background) on phage (from UniProt P69168 267-424) (ligand) | 1.01 | 9.1 | 1.3 | 1.1 | –
G42A IGF-1 (G1S-A70V background) on phage (from UniProt P69168 267-424) (ligand) | 0.53 | 15.7 | 0.7 | 1.9 | –
L54A IGF-1 (G1S-A70V background) on phage (from UniProt P69168 267-424) (ligand) | 1.83 | 23.1 | 2.4 | 2.8 | –
V70A IGF-1 (single mutant of G1S-A70V) on phage (from UniProt P69168 267-424) (ligand) | 0.68 | 19.1 | 0.9 | 2.3 | –
E58A IGF-1 (G1S-A70V background) on phage (from UniProt P69168 267-424) (ligand) | 1.03 | 11.9 | 1.4 | 1.5 | –
K68A IGF-1 (G1S-A70V background) on phage (from UniProt P69168 267-424) (ligand) | 0.76 | 10.5 | 1 | 1.3 | –
T29A IGF-1 (G1S-A70V background) on phage (from UniProt P69168 267-424) (ligand) | 1.23 | 7.3 | 1.6 | 0.9 | –
peptide-phage clone 4D3.11 (g8 display) (polyvalent on M13 phage) VAWEVCWDRHDQGYICTTDSGGGSGGGAEGDDPAKAAFNSLQASATEYIGYAWAMVVVIVGATIGIKLFKKFTSKAS | – | – | – | – | % inhibition of phage binding by 100 nM IGF-1 [7]: 5%
CRAGPLQWLCEKYF-NH2 (disulfide 1-10 (inferred)) [BP1-16] | – | – | – | – | binding result (human IGFBP-1 [8]): binds
peptide-phage clone 4D3.9 (g8 display) (polyvalent on M13 phage) ETVANCDCYMDLCLCYGSDRGGGSGGGAEGDDPAKAAFNSLQASATEYIGYAWAMVVVIVGATIGIKLFKKFTSKAS | – | – | – | – | % inhibition of phage binding by 100 nM IGF-1 [7]: > 40%
peptide-phage clone 4D3.12 (g8 display) (polyvalent on M13 phage) AEWAECWIAGDQLLCVGKDNGGGSGGGAEGDDPAKAAFNSLQASATEYIGYAWAMVVVIVGATIGIKLFKKFTSKAS | – | – | – | – | % inhibition of phage binding by 100 nM IGF-1 [7]: > 40%
peptide-phage clone 4C3.2 (g8 display) (polyvalent on M13 phage) ELDGWVCIKVGEQNLCYLAEGGGSGGGAEGDDPAKAAFNSLQASATEYIGYAWAMVVVIVGATIGIKLFKKFTSKAS | – | – | – | – | % inhibition of phage binding by 100 nM IGF-1 [7]: > 40%
Ac-LEWLAEKYFE (linker 2-10 via 1,5‑diaminopentane) [(i+8)A] | – | – | – | – | fold potency reduction against BP1-01 (human IGFBP-1 [9]): > 200
peptide-phage clone 4D3.8 (g8 display) (polyvalent on M13 phage) SEEVCWPVAEWYLCNILGPGGGSGGGAEGDDPAKAAFNSLQASATEYIGYAWAMVVVIVGATIGIKLFKKFTSKAS | – | – | – | – | % inhibition of phage binding by 100 nM IGF-1 [7]: > 40%
human acid-labile subunit (protein, UniProt P35858 28-605, looked up) ADPGTPGEAEGPACPAACVCSYDDDADELSVFCSSRNLTRLPDGVPGGTQALWLDGNNLSSVPPAAFQNLSSLGFLNLQGGQLGSLEPQALLGLENLCHLHLERNQLRSLALGTFAHTPALASLGLSNNRLSRLEDGLFEGLGSLWDLNLGWNSLAVLPDAAFRGLGSLRELVLAGNRLAYLQPALFSGLAELRELDLSRNALRAIKANVFVQLPRLQKLYLDRNLIAAVAPGAFLGLKALRWLDLSHNRVAGLLEDTFPGLLGLRVLRLSHNAIASLRPRTFKDLHFLEELQLGHNRIRQLAERSFEGLGQLEVLTLDHNQLQEVKAGAFLGLTNVAVMNLSGNCLRNLPEQVFRGLGKLHSLHLEGSCLGRIRPHTFTGLSGLRRLFLKDNGLVGIEEQSLWGLAELLELDLTSNQLTHLPHRLFQGLGKLEYLLLSRNRLAELPADALGPLQRAFWLDVSHNRLEALPNSLLAPLGRLRYLSLRNNSLRTFTPQPPGLERLWLEGNPWDCGCPLKALRDFALQNPSAVPRFVQAICEGDDCQPPAYTYNNITCASPPEVVGLDLRDLSEAHFAPC | – | – | – | – | koff [10]: 0.0004 s⁻¹; koff [11]: 0.00042 s⁻¹
